Laboratory results as given in patent publication US20240261333A1, “NOVEL TARGETS FOR ENHANCING ANTI-TUMOR IMMUNITY” (THE BROAD INSTITUTE, INC., priority 2021, published 2024).

Columns and labels:
S100A8 = S100A8 (UniProt P05109); test: co-IP with mouse IgG control, mass spectrometry; lysate of N-FLAG B3GNT2 cells
RPL36A = RPL36A (UniProt P83881); test: as above
RCC2 = RCC2 (UniProt Q9P258); test: as above
RPL11 = RPL11 (UniProt P62913); test: as above
TRIM21 = TRIM21 (UniProt P19474); test: as above
SPRR2E = SPRR2E (UniProt P22531); test: as above
CTSD = CTSD (UniProt P07339); test: as above
PPIA = PPIA (UniProt P62937); test: as above
STRAP = STRAP (UniProt Q9Y3F4); test: as above
ATXN2L = ATXN2L (UniProt Q8WWM7); test: as above
Chain of ATXN2L (Q8WWM7 whole entry): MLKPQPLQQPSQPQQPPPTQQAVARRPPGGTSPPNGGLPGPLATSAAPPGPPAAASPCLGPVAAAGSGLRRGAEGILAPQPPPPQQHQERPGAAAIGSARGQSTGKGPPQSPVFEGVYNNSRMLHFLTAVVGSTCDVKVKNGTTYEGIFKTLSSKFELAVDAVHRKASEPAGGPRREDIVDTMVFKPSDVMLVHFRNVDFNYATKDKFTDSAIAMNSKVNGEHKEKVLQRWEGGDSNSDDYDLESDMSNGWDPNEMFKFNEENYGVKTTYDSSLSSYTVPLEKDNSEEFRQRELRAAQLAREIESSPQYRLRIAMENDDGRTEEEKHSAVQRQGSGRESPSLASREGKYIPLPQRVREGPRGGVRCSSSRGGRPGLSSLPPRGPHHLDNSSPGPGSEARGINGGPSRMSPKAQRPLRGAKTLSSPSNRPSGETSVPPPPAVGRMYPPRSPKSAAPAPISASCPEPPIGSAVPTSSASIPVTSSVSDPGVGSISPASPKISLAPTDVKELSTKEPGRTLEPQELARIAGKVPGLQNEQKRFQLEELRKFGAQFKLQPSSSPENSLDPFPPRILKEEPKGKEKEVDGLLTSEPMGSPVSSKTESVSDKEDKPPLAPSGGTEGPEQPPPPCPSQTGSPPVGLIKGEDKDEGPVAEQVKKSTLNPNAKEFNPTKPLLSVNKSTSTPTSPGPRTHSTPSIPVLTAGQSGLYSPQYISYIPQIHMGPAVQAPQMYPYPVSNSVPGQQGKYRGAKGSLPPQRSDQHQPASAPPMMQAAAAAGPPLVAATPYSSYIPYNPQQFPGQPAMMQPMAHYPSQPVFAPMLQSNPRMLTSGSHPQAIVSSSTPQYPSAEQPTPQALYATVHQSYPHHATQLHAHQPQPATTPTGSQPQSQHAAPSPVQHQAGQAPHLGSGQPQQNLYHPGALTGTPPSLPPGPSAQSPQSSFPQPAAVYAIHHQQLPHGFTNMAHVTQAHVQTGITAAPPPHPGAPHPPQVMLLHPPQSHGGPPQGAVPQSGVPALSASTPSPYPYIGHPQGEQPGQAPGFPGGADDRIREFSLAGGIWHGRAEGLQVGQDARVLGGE

HNRNPA1 = HNRNPA1 (UniProt P09651); test: as above
PABPC1 (human) = PABPC1 (human) (UniProt P11940); test: IgG control IP from lysate of cells overexpressing C-FLAG B3GNT2, then mass spectrometry
KHDRBS1 (human) = KHDRBS1 (human) (UniProt Q07666); test: as above
SUPT16H (human) = SUPT16H (human) (UniProt Q9Y5B9); test: as above
ANXA2 (human) = ANXA2 (human) (UniProt P07355); test: as above
MAGED2 (human) = MAGED2 (human) (UniProt Q9UNF1); test: as above
EIF3I (human) = EIF3I (human) (UniProt Q13347); test: as above
Chain of EIF3I (human) (Q13347 whole entry): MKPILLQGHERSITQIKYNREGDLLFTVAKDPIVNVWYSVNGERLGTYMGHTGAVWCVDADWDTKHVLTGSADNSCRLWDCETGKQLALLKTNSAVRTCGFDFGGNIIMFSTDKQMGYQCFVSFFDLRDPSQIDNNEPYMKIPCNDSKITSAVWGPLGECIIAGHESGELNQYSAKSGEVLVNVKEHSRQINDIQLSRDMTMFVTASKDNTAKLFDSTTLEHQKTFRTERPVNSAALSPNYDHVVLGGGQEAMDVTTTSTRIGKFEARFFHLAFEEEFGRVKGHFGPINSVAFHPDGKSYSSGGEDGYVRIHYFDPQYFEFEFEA

CPSF6 (human) = CPSF6 (human) (UniProt Q16630); test: as above
Chain of CPSF6 (human) (Q16630 other isoform, or with tags, fused parts or gaps limits assumed): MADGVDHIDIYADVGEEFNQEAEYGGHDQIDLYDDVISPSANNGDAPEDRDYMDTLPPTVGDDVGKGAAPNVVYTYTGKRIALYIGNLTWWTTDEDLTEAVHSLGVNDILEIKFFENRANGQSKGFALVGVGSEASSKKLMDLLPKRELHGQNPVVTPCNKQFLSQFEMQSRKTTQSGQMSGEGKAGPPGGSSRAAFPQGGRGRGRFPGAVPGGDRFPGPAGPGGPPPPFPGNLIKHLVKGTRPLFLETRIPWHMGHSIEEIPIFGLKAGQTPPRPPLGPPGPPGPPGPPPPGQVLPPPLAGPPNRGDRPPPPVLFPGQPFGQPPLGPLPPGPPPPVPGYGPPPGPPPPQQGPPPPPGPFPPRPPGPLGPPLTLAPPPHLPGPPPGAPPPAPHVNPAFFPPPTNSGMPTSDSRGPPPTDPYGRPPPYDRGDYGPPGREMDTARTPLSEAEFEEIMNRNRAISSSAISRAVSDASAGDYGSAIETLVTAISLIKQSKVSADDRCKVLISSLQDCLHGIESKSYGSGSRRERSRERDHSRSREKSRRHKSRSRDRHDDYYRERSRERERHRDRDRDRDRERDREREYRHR

TFAM (human) = TFAM (human) (UniProt Q00059); test: as above
TIMP3 (human) = TIMP3 (human) (UniProt P35625); test: as above
Chain of TIMP3 (human) (P35625 24-211 limits assumed): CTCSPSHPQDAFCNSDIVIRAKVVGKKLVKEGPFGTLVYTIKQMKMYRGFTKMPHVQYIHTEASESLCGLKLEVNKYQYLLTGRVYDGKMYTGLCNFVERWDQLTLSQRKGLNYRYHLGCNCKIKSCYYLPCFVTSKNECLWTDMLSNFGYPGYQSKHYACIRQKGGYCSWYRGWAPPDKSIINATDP

CAPRIN1 (human) = CAPRIN1 (human) (UniProt Q14444); test: as above
Chain of CAPRIN1 (human) (Q14444 2-709 limits assumed): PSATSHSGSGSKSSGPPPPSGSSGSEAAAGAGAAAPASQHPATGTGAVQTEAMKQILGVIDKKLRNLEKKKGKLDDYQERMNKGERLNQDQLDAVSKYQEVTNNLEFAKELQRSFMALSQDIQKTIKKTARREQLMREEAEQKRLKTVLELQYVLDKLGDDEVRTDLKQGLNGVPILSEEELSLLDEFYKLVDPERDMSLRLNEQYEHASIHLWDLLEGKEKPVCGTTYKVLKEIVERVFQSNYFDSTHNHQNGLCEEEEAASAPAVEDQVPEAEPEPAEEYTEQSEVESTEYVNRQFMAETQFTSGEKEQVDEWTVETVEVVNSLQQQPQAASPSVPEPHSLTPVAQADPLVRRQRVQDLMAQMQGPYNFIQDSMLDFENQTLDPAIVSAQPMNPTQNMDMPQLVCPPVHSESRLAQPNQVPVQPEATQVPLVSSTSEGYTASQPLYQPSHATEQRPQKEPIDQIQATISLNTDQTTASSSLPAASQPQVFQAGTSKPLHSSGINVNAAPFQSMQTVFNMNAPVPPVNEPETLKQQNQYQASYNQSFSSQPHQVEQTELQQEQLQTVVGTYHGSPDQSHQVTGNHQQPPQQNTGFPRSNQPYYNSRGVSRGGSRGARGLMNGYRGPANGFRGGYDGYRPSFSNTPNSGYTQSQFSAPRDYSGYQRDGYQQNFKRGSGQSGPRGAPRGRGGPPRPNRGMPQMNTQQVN

VIM (human) = VIM (human) (UniProt P08670); test: as above
Chain of VIM (human) (P08670 2-466 limits assumed): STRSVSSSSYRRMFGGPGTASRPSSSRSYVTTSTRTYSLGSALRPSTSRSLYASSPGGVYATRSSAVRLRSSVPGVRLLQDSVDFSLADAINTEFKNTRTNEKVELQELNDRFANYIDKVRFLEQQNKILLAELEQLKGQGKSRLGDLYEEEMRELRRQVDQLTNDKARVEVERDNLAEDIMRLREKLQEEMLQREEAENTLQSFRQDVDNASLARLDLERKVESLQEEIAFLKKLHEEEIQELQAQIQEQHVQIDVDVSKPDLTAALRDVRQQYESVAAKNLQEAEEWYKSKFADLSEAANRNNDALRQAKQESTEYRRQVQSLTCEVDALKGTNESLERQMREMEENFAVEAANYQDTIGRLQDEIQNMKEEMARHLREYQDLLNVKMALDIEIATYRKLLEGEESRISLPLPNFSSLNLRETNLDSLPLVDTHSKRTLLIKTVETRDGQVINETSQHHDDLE

SRP14 (human) = SRP14 (human) (UniProt P37108); test: as above
Chain of SRP14 (human) (P37108 2-136 limits assumed): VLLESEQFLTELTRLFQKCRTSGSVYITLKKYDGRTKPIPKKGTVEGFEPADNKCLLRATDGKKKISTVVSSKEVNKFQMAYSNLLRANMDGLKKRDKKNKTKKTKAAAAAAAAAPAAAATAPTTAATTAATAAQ

TCP1 (human) = TCP1 (human) (UniProt P17987); test: as above
Chain of TCP1 (human) (P17987 whole entry): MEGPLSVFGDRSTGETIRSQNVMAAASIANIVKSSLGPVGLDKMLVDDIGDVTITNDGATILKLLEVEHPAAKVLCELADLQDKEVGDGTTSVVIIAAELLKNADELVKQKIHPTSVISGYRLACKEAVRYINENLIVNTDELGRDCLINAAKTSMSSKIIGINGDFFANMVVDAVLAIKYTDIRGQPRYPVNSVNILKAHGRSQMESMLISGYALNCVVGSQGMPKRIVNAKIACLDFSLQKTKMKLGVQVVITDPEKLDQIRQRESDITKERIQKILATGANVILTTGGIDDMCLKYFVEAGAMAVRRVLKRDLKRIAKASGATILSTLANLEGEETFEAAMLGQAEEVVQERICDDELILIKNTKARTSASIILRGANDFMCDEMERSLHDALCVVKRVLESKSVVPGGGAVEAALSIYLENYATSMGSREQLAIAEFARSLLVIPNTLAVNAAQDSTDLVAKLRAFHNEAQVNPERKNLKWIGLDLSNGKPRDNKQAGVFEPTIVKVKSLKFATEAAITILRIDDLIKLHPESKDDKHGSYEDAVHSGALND

TAF15 (human) = TAF15 (human) (UniProt Q92804); test: as above
CASC3 (human) = CASC3 (human) (UniProt O15234); test: as above
Chain of CASC3 (human) (O15234 whole entry): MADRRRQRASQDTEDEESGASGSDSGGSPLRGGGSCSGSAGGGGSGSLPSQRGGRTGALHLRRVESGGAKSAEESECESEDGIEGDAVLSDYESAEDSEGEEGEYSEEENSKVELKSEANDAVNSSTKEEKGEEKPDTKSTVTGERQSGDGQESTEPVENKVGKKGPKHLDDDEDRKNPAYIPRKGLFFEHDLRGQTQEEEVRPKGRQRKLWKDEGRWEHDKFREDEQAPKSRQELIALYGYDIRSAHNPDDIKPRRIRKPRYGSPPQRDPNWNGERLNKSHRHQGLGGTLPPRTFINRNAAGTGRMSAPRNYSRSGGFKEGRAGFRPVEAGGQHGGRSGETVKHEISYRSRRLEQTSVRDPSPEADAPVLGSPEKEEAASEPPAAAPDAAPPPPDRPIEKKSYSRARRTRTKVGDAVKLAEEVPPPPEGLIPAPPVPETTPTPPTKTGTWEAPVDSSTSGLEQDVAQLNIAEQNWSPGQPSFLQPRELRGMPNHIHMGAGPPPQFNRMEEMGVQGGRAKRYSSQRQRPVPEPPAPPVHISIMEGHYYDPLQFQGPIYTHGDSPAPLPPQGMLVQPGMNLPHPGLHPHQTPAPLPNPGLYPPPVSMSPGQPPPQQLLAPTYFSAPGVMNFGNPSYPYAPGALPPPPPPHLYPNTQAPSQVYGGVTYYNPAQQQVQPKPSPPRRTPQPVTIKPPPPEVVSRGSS

RPL22 = RPL22 (UniProt P35268); test: co-IP, IgG control, N-FLAG B3GNT2 cell lysate, mass spectrometry
PBXIP1 = PBXIP1 (UniProt Q96AQ6); test: as above
EMD = EMD (UniProt P50402); test: as above
RPL35 = RPL35 (UniProt P42766); test: as above
HIST1H1E = HIST1H1E (UniProt P10412); test: as above
MTCH2 = MTCH2 (UniProt Q9Y6C9); test: as above
TAGLN = TAGLN (UniProt Q01995); test: as above
Chain of TAGLN (Q01995 2-201 limits assumed): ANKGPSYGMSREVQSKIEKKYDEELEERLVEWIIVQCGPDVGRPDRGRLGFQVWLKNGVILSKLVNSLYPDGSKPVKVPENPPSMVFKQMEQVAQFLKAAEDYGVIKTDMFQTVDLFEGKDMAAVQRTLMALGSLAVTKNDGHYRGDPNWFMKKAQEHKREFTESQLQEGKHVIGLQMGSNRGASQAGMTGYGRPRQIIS

SSRP1 = SSRP1 (UniProt Q08945); test: as above
DEFA3 = DEFA3 (UniProt P59666); test: as above
Chain of DEFA3 (P59666 65-94 limits assumed): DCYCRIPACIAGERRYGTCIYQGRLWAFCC

PSMA7 = PSMA7 (UniProt O14818); test: as above
RPS8 = RPS8 (UniProt P62241); test: as above
RPL27A = RPL27A (UniProt P46776); test: as above
RPS2 = RPS2 (UniProt P15880); test: as above

Substance: IgG control (Millipore Sigma 12-371) (antibody)
- co-IP mass spectrometry count (S100A8): 4
- co-IP mass spectrometry count (RPL36A): 2
- co-IP mass spectrometry count (RCC2): 0
- co-IP mass spectrometry count (RPL11): 3
- co-IP mass spectrometry count (TRIM21): 0
- co-IP mass spectrometry count (SPRR2E): 3
- co-IP mass spectrometry count (CTSD): 3
- co-IP mass spectrometry count (PPIA): 0
- co-IP mass spectrometry count (STRAP): 0
- co-IP mass spectrometry count (ATXN2L): 3
- co-IP mass spectrometry count (HNRNPA1): 4
- co-IP mass spectrometry count (C-term IgG) (PABPC1 (human)): 30
- co-IP mass spectrometry count (C-term IgG) (KHDRBS1 (human)): 7
- co-IP mass spectrometry count (C-term IgG) (SUPT16H (human)): 0
- co-IP mass spectrometry count (C-term IgG) (ANXA2 (human)): 16
- co-IP mass spectrometry count (C-term IgG) (MAGED2 (human)): 0
- co-IP mass spectrometry count (C-term IgG) (EIF3I (human)): 0
- co-IP mass spectrometry count (C-term IgG) (CPSF6 (human)): 33
- co-IP mass spectrometry count (C-term IgG) (TFAM (human)): 0
- co-IP mass spectrometry count (C-term IgG) (TIMP3 (human)): 0
- co-IP mass spectrometry count (C-term IgG) (CAPRIN1 (human)): 6
- co-IP mass spectrometry count (C-term IgG) (VIM (human)): 337
- co-IP mass spectrometry count (C-term IgG) (SRP14 (human)): 0
- co-IP mass spectrometry count (C-term IgG) (TCP1 (human)): 0
- co-IP mass spectrometry count (C-term IgG) (TAF15 (human)): 4
- co-IP mass spectrometry count (C-term IgG) (CASC3 (human)): 0
- co-IP mass spectrometry count (RPL22): 0
- co-IP mass spectrometry count (PBXIP1): 0
- co-IP mass spectrometry count (EMD): 0
- co-IP mass spectrometry count (RPL35): 2
- co-IP mass spectrometry count (HIST1H1E): 2
- co-IP mass spectrometry count (MTCH2): 0
- co-IP mass spectrometry count (TAGLN): 0
- co-IP mass spectrometry count (SSRP1): 0
- co-IP mass spectrometry count (DEFA3): 3
- co-IP mass spectrometry count (PSMA7): 0
- co-IP mass spectrometry count (RPS8): 7
- co-IP mass spectrometry count (RPL27A): 3
- co-IP mass spectrometry count (RPS2): 10
